US6509033

Biological target: 'Empty' HLA-DR1 purified from insect cells expressing recombinant DR1 cDNA (human)

B1: Invariant Chain (Ii) 98-121 (peptide)
peptide: LPKPPKPVSKMRMATPLLMQALPM
modifications: not checked
  Ki: 33 nM
